± gives the standard deviation of the averaged measurements.
Columns and labels:
MCF7 = assay: percentage of EdU-negative (G0-arrested) nuclei per well, 72 h; higher = more G0 arrest; settings: reference: sequence is the full UniProt precursor, the tested protein was the secreted form or ectodomain
hTERT-HMEC = assay: as above; settings: reference: sequence is the full UniProt precursor, the tested protein was the secreted form or ectodomain
[1] = protein concentration 0.03125 µM
[2] = protein concentration 0.3125 µM
[3] = protein concentration 0.0225 µM
[4] = protein concentration 0.0215 µM
[5] = protein concentration 0.0357143 µM
[6] = protein concentration 0.357143 µM
[7] = protein concentration 0.01325 µM
[8] = protein concentration 0.1325 µM
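Further: secreted proteins added to cultured cells, EdU pulse at the end, nuclei found by Hoechst imaging, EdU status from nuclear versus surrounding ring intensity ratio, PBS as neutral control.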

## MTPHRLLPPLLLLLALLLAASPGGALARCPGCGQGVQAGCPGGCVEEEDGGSPAEGCAEAEGCLRREGQECGVYTPNCAPGLQCHPPKDDEAPLRALLLGRGRCLPARAPAVAEENPKESKPQAGTARPQDVNRRDQQRNPGTSTTPSQPNSAGVQDTEMGPCRRHLDSVLQQLQTEVYRGAQTLYVPNCDHRGFYRKRQCRSSQGQRRGPCWCVDRMGKSLPGSPDGNGSSSCPTGSSG
MCF7; [1]
  percentage of EdU-negative: 25 ± 1.6%
MCF7; [2]
  percentage of EdU-negative: 25.79 ± 0.037%
hTERT-HMEC; [1]
  percentage of EdU-negative: 4.84 ± 0.44%
hTERT-HMEC; [2]
  percentage of EdU-negative: 5.17 ± 1%

## MTPILTVLICLGLSLGPRTHVQAGHLPKPTLWAEPGSVIIQGSPVTLRCQGSLQAEEYHLYRENKSASWVRRIQEPGKNGQFPIPSITWEHAGRYHCQYYSHNHSSEYSDPLELVVTGAYSKPTLSALPSPVVTSGGNVTLQCVSQVAFDGFILCKEGEDEHPQRLNSHSHARGWSWAIFSVGPVSPSRRWSYRCYAYDSNSPYVWSLPSDLLELLVPGVSKKPSLSVQPGPMVAPGESLTLQCVSDVGYDRFVLYKEGERDFLQRPGWQPQAGLSQANFTLGPVSPSHGGQYRCYSAHNLSSEWSAPSDPLDILITGQFYDRPSLSVQPVPTVAPGKNVTLLCQSRGQFHTFLLTKEGAGHPPLHLRSEHQAQQNQAEFRMGPVTSAHVGTYRCYSSLSSNPYLLSLPSDPLELVVSEAAETLSPSQNKTDSTTTSLGQHPQDYTVENLIRMGVAGLVLVVLGILLFEAQHSQRSLQDAAGR [Q8N149]
MCF7; [3]
  percentage of EdU-negative: 23.9 ± 0.99%
MCF7; protein concentration 0.225 µM
  percentage of EdU-negative: 26.3 ± 3.1%
hTERT-HMEC; [3]
  percentage of EdU-negative: 5.36 ± 0.5%
hTERT-HMEC; protein concentration 0.225 µM
  percentage of EdU-negative: 4.88 ± 0.47%

## MTPILTVLICLGLSLGPRTHVQAGHLPKPTLWAEPGSVITQGSPVTLRCQGGQETQEYRLYREKKTALWITRIPQELVKKGQFPIPSITWEHAGRYRCYYGSDTAGRSESSDPLELVVTGAYIKPTLSAQPSPVVNSGGNVILQCDSQVAFDGFSLCKEGEDEHPQCLNSQPHARGSSRAIFSVGPVSPSRRWWYRCYAYDSNSPYEWSLPSDLLELLVLGVSKKPSLSVQPGPIVAPEETLTLQCGSDAGYNRFVLYKDGERDFLQLAGAQPQAGLSQANFTLGPVSRSYGGQYRCYGAHNLSSEWSAPSDPLDILIAGQFYDRVSLSVQPGPTVASGENVTLLCQSQGWMQTFLLTKEGAADDPWRLRSTYQSQKYQAEFPMGPVTSAHAGTYRCYGSQSSKPYLLTHPSDPLELVVSGPSGGPSSPTTGPTSTSGPEDQPLTPTGSDPQSGLGRHLGVVIGILVAVILLLLLLLLLFLILRHRRQGKHWTSTQRKADFQHPAGAVGPEPTDRGLQWRSSPAADAQEENLYAAVKHTQPEDGVEMDTRSPHDEDPQAVTYAEVKHSRPRREMASPPSPLSGEFLDTKDRQAEEDRQMDTEAAASEAPQDVTYAQLHSLTLRREATEPPPSQEGPSPAVPSIYATLAIH [A0A0B4J1W1]
MCF7; [4]
  percentage of EdU-negative: 23.2 ± 2.5%
MCF7; protein concentration 0.215 µM
  percentage of EdU-negative: 25.3 ± 0.95%
hTERT-HMEC; [4]
  percentage of EdU-negative: 4.85 ± 0.58%
hTERT-HMEC; protein concentration 0.215 µM
  percentage of EdU-negative: 5.72 ± 0.22%

## MTPPERLFLPRVCGTTLHLLLLGLLLVLLPGAQGLPGVGLTPSAAQTARQHPKMHLAHSTLKPAAHLIGDPSKQNSLLWRANTDRAFLQDGFSLSNNSLLVPTSGIYFVYSQVVFSGKAYSPKATSSPLYLAHEVQLFSSQYPFHVPLLSSQKMVYPGLQEPWLHSMYHGAAFQLTQGDQLSTHTDGIPHLVLSPSTVFFGAFAL
MCF7; [5]
  percentage of EdU-negative: 35.3 ± 2.4%
MCF7; [6]
  percentage of EdU-negative: 42.8 ± 0.91%
hTERT-HMEC; [5]
  percentage of EdU-negative: 6.4 ± 0.43%
hTERT-HMEC; [6]
  percentage of EdU-negative: 6.94 ± 0.51%

## MTPPKLRASLSPSLLLLLSGCLLAAARREKGAASNVAEPVPGPTGGSSGRFLSPEQHACSWQLLLPAPEAAAGSELALRCQSPDGARHQCAYRGHPERCAAYAARRAHFWKQVLGGLRKKRRPCHDPAPLQARLCAGKKGHGAELRLVPRASPPARPTVAGFAGESKPRARNRGRTRERASGPAAGTPPPQSAPPKENPSERKTNEGKRKAALVPNEERPMGTGPDPDGLDGNAELTETYCAEKWHSLCNFFVNFWNG [Q8TAT2]
MCF7; [7]
  percentage of EdU-negative: 25.1 ± 0.15%
MCF7; [8]
  percentage of EdU-negative: 27.7 ± 1.3%
hTERT-HMEC; [7]
  percentage of EdU-negative: 4.87 ± 0.1%
hTERT-HMEC; [8]
  percentage of EdU-negative: 6.22 ± 0.9%

## MTPPPPGRAAPSAPRARVPGPPARLGLPLRLRLLLLLWAAAASAQGHLRSGPRIFAVWKGHVGQDRVDFGQTEPHTVLFHEPGSSSVWVGGRGKVYLFDFPEGKNASVRTVNIGSTKGSCLDKRDCENYITLLERRSEGLLACGTNARHPSCWNLVNGTVVPLGEMRGYAPFSPDENSLVLFEGDEVYSTIRKQEYNGKIPRFRRIRGESELYTSDTVMQNPQFIKATIVHQDQAYDDKIYYFFREDNPDKNPEAPLNVSRVAQLCRGDQGGESSLSVSKWNTFLKAMLVCSDAATNKNFNRLQDVFLLPDPSGQWRDTRVYGVFSNPWNYSAVCVYSLGDIDKVFRTSSLKGYHSSLPNPRPGKCLPDQQPIPTETFQVADRHPEVAQRVEPMGPLKTPLFHSKYHYQKVAVHRMQASHGETFHVLYLTTDRGTIHKVVEPGEQEHSFAFNIMEIQPFRRAAAIQTMSLDAERRKLYVSSQWEVSQVPLDLCEVYGGGCHGCLMSRDPYCGWDQGRCISIYSSERSVLQSINPAEPHKECPNPKPDKAPLQKVSLAPNSRYYLSCPMESRHATYSWRHKENVEQSCEPGHQSPNCILFIENLTAQQYGHYFCEAQEGSYFREAQHWQLLPEDGIMAEHLLGHACALAASLWLGVLPTLTLGLLVH
MCF7; [3]
  percentage of EdU-negative: 24.7 ± 2.4%
MCF7; protein concentration 0.225 µM
  percentage of EdU-negative: 25.6 ± 1.6%
hTERT-HMEC; [3]
  percentage of EdU-negative: 4.66 ± 0.25%
hTERT-HMEC; protein concentration 0.225 µM
  percentage of EdU-negative: 5.49 ± 0.49%

From the supplement of paper PMC11316812
